From patent US20110165624A1

Molecular target: native Ocr protein (bacteriophage T7 gene 0.3 product) as produced from pMCSG7 (bacteriophage T7)
Experiment: size exclusion chromatography, Superdex 75; predicted monomer 16.6 kDa, dimer 33.3 kDa

How did the calculated molecular weight on size exclusion column turn out when “native Ocr protein (bacteriophage T7 gene 0.3 product) as produced from pMCSG7” was run?
The calculated molecular weight on size exclusion column was 35 kDa.
